This assay has as its target Mat1 (230-309) (human, UniProt P51948). As to the kind of experiment: crystal structure.

Mat1 (230-309), sequence (P51948 230-309): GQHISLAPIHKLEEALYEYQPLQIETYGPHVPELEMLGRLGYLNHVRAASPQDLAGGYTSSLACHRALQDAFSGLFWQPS

B1: VHH_(RD7-04), construct for co-crystallization (VHH)
VHH: QVQLVESGGGLVQPGGSLRLSCVASGFTFKNFYMGWVRQAPDKGLEWVATINSGGEIQSYADSVKGRFTISRDNAKNTLYLQMNNLRPEDTAVYYCSKQSSTPAKGQGTQVTVSS
With B1, the binding result is given as “binds”.

Values taken from article PMC10888979 (bioRxiv, 2024).
